Values of other authors in PMC3018525.
Where two headings read alike, the source gives them in different places.

Assays:
EGF (Homo sapiens) [1] = molecular target: EGF (Homo sapiens) (UniProt P01133)
EGF (Homo sapiens) [2] = molecular target: EGF (Homo sapiens) (UniProt P01133); remark: listed apart in the source

Chain of UniProt P01133 (P01133 971-1023): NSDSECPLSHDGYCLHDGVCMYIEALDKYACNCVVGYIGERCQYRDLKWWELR

EGFR (low-affinity) (from UniProt P00533)
Kd (EGF (Homo sapiens) [1]): 2 nM

EGFR (high-affinity) (from UniProt P00533)
Kd (EGF (Homo sapiens) [2]): 0.3 nM
